18 sequences from the supplement of paper PMC12764529 can be followed below.

Data set [1] can be described thus: folding stability dG unfold from trypsin proteolysis; higher = more stable. A digest of the protocol:
(§1)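 Designed mini-proteins with no cysteine and under 80 residues were kept only if AlphaFold2 dimer inter-PAE was above 15. In a PA-tagged cDNA display construct, they were digested with trypsin and chymotrypsin and then sequenced. K50 was inferred by Bayesian fitting of counts, and unfolding free energy was derived per protease or combined against a sequence-predicted unfolded-state K50 and a shared folded-state K50.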

The nature of data set [2]: folding stability dG unfold from chymotrypsin proteolysis; higher = more stable. Summed up: as §1
A short description of data set [3]: folding stability dG unfold (combined trypsin and chymotrypsin); higher = more stable. Summed up: as §1

± gives the half width of the 95% confidence interval.

For the sequence “SAGGVERDPPGKNVYYVEIEIKIEIRDPNNGKPLEIPVPITYPFKSPADALEQMRRQARNLAEKLLNSAGGS [r16_624_TrROS]”, the “folding stability dG unfold” value in data set [1] came to 1.78 ± 0.041 kcal/mol; in data set [2], 2.18 ± 0.1 kcal/mol; in data set [3], 2.03 ± 0.13 kcal/mol.

On to “SAGGVIELPNAGLPEFLAFLKEAAEKGIPNVTVILTGPSKPYLAIYDPKKNIVTVLHPNGKTYTFKASAGGS [r16_481_TrMRF]”, for which the “folding stability dG unfold” value in data set [1] was determined as 2.76 ± 0.15 kcal/mol; in data set [2] it was 2.99 ± 0.058 kcal/mol; in data set [3], 2.91 ± 0.12 kcal/mol.

On to “SAGGVIPPSATITTLKTYPDGTVLTNVTFPDGTPMTVTLTRETLPDGSVVLKFTNPATGEELATFPVSSAGG [r13_527_JUSTAS]”, for which the “folding stability dG unfold” value stood at 1.93 ± 0.063 kcal/mol in data set [1], 2.15 ± 0.062 kcal/mol in data set [2] and 2.15 ± 0.088 kcal/mol in data set [3].

Turning to “SAGGVITAVESTTTPLPNGTVLVTLTLKEGGETLQVTVTVSPDGVTVTTPSGKTSTIAPEELASLLPSAGGS [r16_593_JUSTAS]”, the “folding stability dG unfold” value came to 1.31 ± 0.025 kcal/mol in data set [1], 1.39 ± 0.025 kcal/mol in data set [2] and 1.34 ± 0.076 kcal/mol in data set [3].

For the sequence “SAGGVLETKLPGGVSVTYSETPFVKDGREYLVLPAAAGDPAGAPFVTTTVVEPETGEVLETTETPLASAGGS [r8_492_JUSTAS]”, the “folding stability dG unfold” value turned out to be 0.331 ± 0.059 kcal/mol in data set [1], 0.536 ± 0.13 kcal/mol in data set [2] and 0.465 ± 0.1 kcal/mol in data set [3].

“SAGGVPVSVEVDPRGEVTITNPVNGSSLVIPVPPDAEVTVVSLPPSSVTVRVTVGGEERDIVLPPSSVSAGG [r19_309_JUSTAS]”: the “folding stability dG unfold” value in data set [1] was found to be 0.587 ± 0.023 kcal/mol; in data set [2] it was 0.662 ± 0.034 kcal/mol; in data set [3] it was 0.621 ± 0.065 kcal/mol.

Regarding “SAGGVRKIEFRIDLPDPNVTIEEIVERILKELGLKPEEAIVEVLKIEEVEDEDGIPHIRIDVKIYVPDKSAG [r5_528_TrMRF]”, the “folding stability dG unfold” value in data set [1] was 3.54 ± 0.1 kcal/mol; in data set [2], 2.98 ± 0.031 kcal/mol; in data set [3] it was 3.21 ± 0.059 kcal/mol.

As to “SAGGVTIEVDPGTGKVTITFPDGSSATIEVPPDERAVLFVKEGEGEVEVALVREDDPEALEKALELGSAGGS [r16_623_TrMRF]”, the results for the “folding stability dG unfold” value in data set [1], in data set [2] and in data set [3] were 0.811 ± 0.059 kcal/mol, 1.34 ± 0.058 kcal/mol and 1.05 ± 0.2 kcal/mol, respectively.

As to “SAGGVTTPVTFTVPPSLDPEEAAERIAKELEEELKAASNKKVKVTVESVTPLPDGTLRVTVVITTEPSAGGS [r8_156_JUSTAS]”, the “folding stability dG unfold” value in data set [1] was determined as 3.76 ± 0.2 kcal/mol; in data set [2] it was 3.14 ± 0.067 kcal/mol; in data set [3], 3.31 ± 0.086 kcal/mol.

For the sequence “SAGGVVTVTVDPNSDKVTAYTTRTVTVYFNELGIWKEEEVTDVVTMSQEELEKLKEESGLPMVIVGASAGGS [r8_337_JUSTAS]”, the entries for the “folding stability dG unfold” value in data set [1], in data set [2] and in data set [3] were 0.216 ± 0.061 kcal/mol, -0.0773 ± 0.19 kcal/mol and 0.238 ± 0.094 kcal/mol, respectively.

For “SAGGVYVIKIKFEFGDGLKAELFIMFQSWEQAKEQAENLARNHGLRIDEIEVVPIKPMPPPDPDDQKSAGGS [r8_364_TrROS]”, the results for the “folding stability dG unfold” value in data set [1], in data set [2] and in data set [3] were 2.46 ± 0.14 kcal/mol, 4.13 ± 0.14 kcal/mol and 3.63 ± 0.29 kcal/mol, respectively.

Take “SAGGWIPPGAEIEIDEIGPDGTITVKIKYPDGKPMSITMRRQRDKDGKRYIELYFPGSGRPIASFPIKSAGG [r13_527_TrROS]”: the “folding stability dG unfold” value in data set [1] worked out at 1.84 ± 0.03 kcal/mol; in data set [2], 1.57 ± 0.08 kcal/mol; in data set [3], 1.78 ± 0.09 kcal/mol.

On to “SAGGWLWVRTNGRIFVIEIKTEMKWEYDPGDPGQWRMDMEPEIEVRPIPPDDIKPLPPVDEDDPENKSAGGS [r16_395_TrROS]”, for which the results for the “folding stability dG unfold” value in data set [1], in data set [2] and in data set [3] were 1.68 ± 0.13 kcal/mol, 2.09 ± 0.27 kcal/mol and 1.87 ± 0.32 kcal/mol, respectively.

Regarding “SAGGWRIKLERDPENGKIKVSIERSPNEGYATVEVKLPNGKPLEIPGPMDSPDEMEEKARDYIKKLLSAGGS [r16_319_TrROS]”, the figures for the “folding stability dG unfold” value in data set [1], in data set [2] and in data set [3] were 0.777 ± 0.09 kcal/mol, 1.01 ± 0.086 kcal/mol and 0.991 ± 0.1 kcal/mol, respectively.

Take “SAGGWTIEEIIDAIREAKENGPGQKVEIEIPFGGGPVRVSIEVPPDGRVKIEIQYDNKPIWEIEIPVSAGGS [r16_611_TrROS]”: the “folding stability dG unfold” value is 1.98 ± 0.14 kcal/mol in data set [1], 2.12 ± 0.081 kcal/mol in data set [2] and 2.02 ± 0.15 kcal/mol in data set [3].

Take “SAGGWYERIKEWAKDKGLKVDIEPTSFDPPNGWMPFEIEFPNGKKIDITFPDSPDQMLWMIRNMIKNSAGGS [r16_153_TrROS]”: the “folding stability dG unfold” value in data set [1] came out at 1.63 ± 0.057 kcal/mol; in data set [2], 2.16 ± 0.09 kcal/mol; in data set [3] it was 2.05 ± 0.15 kcal/mol.

With “SAGGWYLRIEPDDGRELEIPMNDPGLPLEDLADKLMKDMPGPMKIKVEFYHPNKPVEHTIKIPLPKNSAGGS [r16_216_TrROS]”, the “folding stability dG unfold” value in data set [1] is 0.443 ± 0.11 kcal/mol; in data set [2] it was 0.436 ± 0.33 kcal/mol; in data set [3], 0.423 ± 0.28 kcal/mol.

For “SAGGYEKKTIRIEATPEELENLLKELREKYPDLKVEVKVVKVEKKENDPNVSPKDKKVYLEITVVKPKPSAG [r5_437_TrROS_Hall]”, the “folding stability dG unfold” value in data set [1] worked out at 1.39 ± 0.12 kcal/mol; in data set [2], 1.89 ± 0.13 kcal/mol; in data set [3] it was 1.88 ± 0.17 kcal/mol.
